Where no end group is shown, it is not given here.
Columns and labels:
[1] = biological target: T1, Anti-PSMA Fab (SEQ ID NOs: 19, 20); test: phage binding ELISA; biotinylated Fab on neutravidin plate, clonal phage detected with anti-M13 HRP
T1 construct: Biotinylated and captured on neutravidin coated plates in the phage ELISA; also called 006 PSMA Fab

[2] = biological target: T1, Anti-PSMA Fab (SEQ ID NOs: 19, 20); test: phage binding ELISA; Fab-coated wells pre-incubated with PSMA antigen as competitor
[3] = biological target: T2, Anti-PSMA Fab (SEQ ID NOs: 19, 20); test: phage binding ELISA; biotinylated PSMA Fab on neutravidin plate, clonal phage supernatant, anti-M13 HRP detection;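 further: wells were preincubated with blocking buffer either containing PSMA antigen or without it before crude phage supernatant was added, briefly incubated, then washed prior to detection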
T2 construct: also called 006 PSMA Fab

[4] = biological target: T2, Anti-PSMA Fab (SEQ ID NOs: 19, 20); test: phage binding ELISA; PSMA Fab on plate pre-incubated with PSMA antigen as competitor, anti-M13 HRP detection;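 further: crude clonal phage supernatants added without washing to wells preincubated with PSMA in blocking buffer, compared with wells receiving blocking buffer only, then bound phage detected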
[5] = biological target: T3, Anti-PSMA Fab (SEQ ID NOs: 19, 20); test: phage binding ELISA; plate-captured PSMA Fab pre-incubated with PSMA antigen as competitor, anti-M13 HRP detection
T3 construct: Biotinylated and captured on neutravidin coated plates in the phage ELISA; also called 006 PSMA Fab

[6] = biological target: T3, Anti-PSMA Fab (SEQ ID NOs: 19, 20); test: phage binding ELISA; clonal phage on plate-captured biotinylated PSMA Fab, anti-M13 HRP detection
[7] = biological target: T4, Anti-PSMA Fab (SEQ ID NOs: 19, 20); test: phage binding ELISA; Fab-coated wells pre-incubated with PSMA antigen as competitor, anti-M13-HRP detection;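 further: clonal phage supernatants screened, with reference wells given blocking buffer only (no PSMA antigen) before phage were added for a brief incubation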
T4 construct: Biotinylated and captured on neutravidin coated plates in the phage ELISA; also called 006 PSMA Fab

[8] = biological target: T4, Anti-PSMA Fab (SEQ ID NOs: 19, 20); test: phage binding ELISA; biotinylated PSMA Fab on neutravidin plate, clonal phage detected with anti-M13-HRP

In the case of IPRMCTPAWMCEWS [Phage-2279], the “Anti-PSMA Fab (SEQ ID NOs: 19, 20) signal” value [1] is reported as 1.51 and the “Anti-PSMA Fab signal in the presence of PSMA” value (“Anti-PSMA Fab signal” for short) [2] is reported as 0.0738.

In the case of ITKLCTPPWMCTMV [Phage-2267], the “Anti-PSMA Fab (SEQ ID NOs: 19, 20) signal” value [3] is reported as 1.53 and the “Anti-PSMA Fab signal” value [4] is reported as 0.0558.

B1: Phage-2291 (peptide)
peptide: VEKWCIPAWMCQQS
notes: tested as crude clonal phage supernatant
With B1 the “Anti-PSMA Fab signal” value [5] was 0.0698 and the “Anti-PSMA Fab (SEQ ID NOs: 19, 20) signal” value [6] was 1.5.

FAILCKPMWMCEHI [Phage-2280] was tested, and the “Anti-PSMA Fab (SEQ ID NOs: 19, 20) signal” value [1] was 1.51 and the “Anti-PSMA Fab signal” value [2] was 0.0895.

FAKWCTPQWMCSAM [Phage-2269] was tested, and the “Anti-PSMA Fab (SEQ ID NOs: 19, 20) signal” value [1] was 1.53 and the “Anti-PSMA Fab signal” value [2] was 0.225.

For PAKWCIPMWMCQVD [Phage-2254], the “Anti-PSMA Fab (SEQ ID NOs: 19, 20) signal” value [3] was 1.55 and the “Anti-PSMA Fab signal” value [4] was 0.0779.

VVKWCSPPWMCEYF [Phage-2270] was tested, and the “Anti-PSMA Fab (SEQ ID NOs: 19, 20) signal” value [1] was 1.53 and the “Anti-PSMA Fab signal” value [2] was 0.0886.

For VELLCKPPWMCSGL [Phage-2255], the “Anti-PSMA Fab (SEQ ID NOs: 19, 20) signal” value [3] was 1.54 and the “Anti-PSMA Fab signal” value [4] was 0.0931.

For MEMWCRPAWMCAHS (cysteine pairing not given here; also: displayed on phage, fused to pIII) [Phage-2257], the “Anti-PSMA Fab (SEQ ID NOs: 19, 20) signal” value [3] was 1.54 and the “Anti-PSMA Fab signal” value [4] was 0.0767.

B2: Phage-2283 (peptide)
peptide: GGKWCKPSWMCFGM
notes: as for B1
B2 was tested, and the “Anti-PSMA Fab signal” value [5] was 0.108 and the “Anti-PSMA Fab (SEQ ID NOs: 19, 20) signal” value [6] was 1.51.

With DMRWCIPAWMCEDR [Phage-2259] the “Anti-PSMA Fab (SEQ ID NOs: 19, 20) signal” value [3] was 1.54 and the “Anti-PSMA Fab signal” value [4] was 0.0623.

For IIKWCKPLWMCESI [Phage-2277], the “Anti-PSMA Fab (SEQ ID NOs: 19, 20) signal” value [1] was 1.52 and the “Anti-PSMA Fab signal” value [2] was 0.104.

B3: Phage-2290 (peptide)
peptide: VDKQCRPAWMCEIW
notes: as for B1
B3 was tested, and the “Anti-PSMA Fab signal” value [5] was 0.0653 and the “Anti-PSMA Fab (SEQ ID NOs: 19, 20) signal” value [6] was 1.5.

With WDMRCTPIWMCEGF [Phage-2272] the “Anti-PSMA Fab (SEQ ID NOs: 19, 20) signal” value [1] was 1.52 and the “Anti-PSMA Fab signal” value [2] was 0.0882.

B4: Phage-2288 (peptide)
peptide: HVKWCTPAWMCVSN
notes: as for B1
For B4, the “Anti-PSMA Fab signal” value [5] was 0.079 and the “Anti-PSMA Fab (SEQ ID NOs: 19, 20) signal” value [6] was 1.51.

For LEKWCTPPWMCMGF [Phage-2276], the “Anti-PSMA Fab (SEQ ID NOs: 19, 20) signal” value [1] was 1.52 and the “Anti-PSMA Fab signal” value [2] was 0.0948.

In the case of GDRWCIPEWMCGVI [Phage-2265], the “Anti-PSMA Fab (SEQ ID NOs: 19, 20) signal” value [3] is reported as 1.54 and the “Anti-PSMA Fab signal” value [4] is reported as 0.0664.

B5: Phage-2287 (peptide)
peptide: VEKWCTPRWMCEGF
notes: as for B1
B5 was tested, and the “Anti-PSMA Fab signal” value [5] was 0.0841 and the “Anti-PSMA Fab (SEQ ID NOs: 19, 20) signal” value [6] was 1.51.

YTNWCIPSWMCEGF [Phage-2274] was tested, and the “Anti-PSMA Fab (SEQ ID NOs: 19, 20) signal” value [1] was 1.52 and the “Anti-PSMA Fab signal” value [2] was 0.0789.

GINWCIPPWMCQSE [Phage-2273] was tested, and the “Anti-PSMA Fab (SEQ ID NOs: 19, 20) signal” value [1] was 1.52 and the “Anti-PSMA Fab signal” value [2] was 0.119.

For EMHWCIPAWMCPDG [Phage-2266], the “Anti-PSMA Fab (SEQ ID NOs: 19, 20) signal” value [3] was 1.54 and the “Anti-PSMA Fab signal” value [4] was 0.0572.

With GEKWCIPSWMCEIT [Phage-2275] the “Anti-PSMA Fab (SEQ ID NOs: 19, 20) signal” value [1] was 1.52 and the “Anti-PSMA Fab signal” value [2] was 0.0796.

With AVKLCTPMWMCMGF [Phage-2282] the “Anti-PSMA Fab (SEQ ID NOs: 19, 20) signal” value [1] was 1.51 and the “Anti-PSMA Fab signal” value [2] was 0.0984.

TEKWCIPAWMCQVS [Phage-2261] was tested, and the “Anti-PSMA Fab (SEQ ID NOs: 19, 20) signal” value [3] was 1.54 and the “Anti-PSMA Fab signal” value [4] was 0.0738.

For NERWCIPSWMCQEA [Phage-2253], the “Anti-PSMA Fab (SEQ ID NOs: 19, 20) signal” value [3] was 1.55 and the “Anti-PSMA Fab signal” value [4] was 0.0574.

In the case of IEKWCIPQWMCSAA [Phage-2278], the “Anti-PSMA Fab (SEQ ID NOs: 19, 20) signal” value [1] is reported as 1.52 and the “Anti-PSMA Fab signal” value [2] is reported as 0.0739.

With VDRWCIPEWMCNEL [Phage-2260] the “Anti-PSMA Fab (SEQ ID NOs: 19, 20) signal” value [3] was 1.54 and the “Anti-PSMA Fab signal” value [4] was 0.084.

In the case of ALKWCIPDWMCSQP [Phage-2264], the “Anti-PSMA Fab (SEQ ID NOs: 19, 20) signal” value [3] is reported as 1.54 and the “Anti-PSMA Fab signal” value [4] is reported as 0.0749.

B6: Phage-2286 (peptide)
peptide: AEKWCIPPWMCVND
notes: as for B1
B6 was tested, and the “Anti-PSMA Fab signal” value [5] was 0.0683 and the “Anti-PSMA Fab (SEQ ID NOs: 19, 20) signal” value [6] was 1.51.

In the case of AENWCRPSWMCEGF [Phage-2268], the “Anti-PSMA Fab (SEQ ID NOs: 19, 20) signal” value [1] is reported as 1.53 and the “Anti-PSMA Fab signal” value [2] is reported as 0.0717.

MPKWCIPTWMCEST [Phage-2281] was tested, and the “Anti-PSMA Fab (SEQ ID NOs: 19, 20) signal” value [1] was 1.51 and the “Anti-PSMA Fab signal” value [2] was 0.054.

With HQNWCIPAWMCHGM [Phage-2271] the “Anti-PSMA Fab (SEQ ID NOs: 19, 20) signal” value [1] was 1.53 and the “Anti-PSMA Fab signal” value [2] was 0.0592.

B7: Phage-2285 (peptide)
peptide: EPKWCIPQWMCERF
notes: as for B1
B7 was tested, and the “Anti-PSMA Fab signal” value [5] was 0.0654 and the “Anti-PSMA Fab (SEQ ID NOs: 19, 20) signal” value [6] was 1.51.

B8: Phage-2191 (peptide)
peptide: VDNWCVPRWMCDGF
notes: as for B1
With B8 the “Anti-PSMA Fab signal” value [7] was 0.0922 and the “Anti-PSMA Fab (SEQ ID NOs: 19, 20) signal” value [8] was 1.63.

For MMKWCTPEWMCAMV (cysteine pairing not given here; also: displayed on phage, fused to pIII) [Phage-2258], the “Anti-PSMA Fab (SEQ ID NOs: 19, 20) signal” value [3] was 1.54 and the “Anti-PSMA Fab signal” value [4] was 0.0753.

With YSHLCIPSWMCSWT [Phage-2263] the “Anti-PSMA Fab (SEQ ID NOs: 19, 20) signal” value [3] was 1.54 and the “Anti-PSMA Fab signal” value [4] was 0.111.

B9: Phage-2289 (peptide)
peptide: ELNWCTPPWMCNPM
notes: as for B1
For B9, the “Anti-PSMA Fab signal” value [5] was 0.0786 and the “Anti-PSMA Fab (SEQ ID NOs: 19, 20) signal” value [6] was 1.5.

For PVNWCKPPWMCEMW [Phage-2256], the “Anti-PSMA Fab (SEQ ID NOs: 19, 20) signal” value [3] was 1.54 and the “Anti-PSMA Fab signal” value [4] was 0.087.

PNIWCTPLWMCEGL [Phage-2262] was tested, and the “Anti-PSMA Fab (SEQ ID NOs: 19, 20) signal” value [3] was 1.54 and the “Anti-PSMA Fab signal” value [4] was 0.0772.

B10: Phage-2284 (peptide)
peptide: MINWCTPAWMCTGF
notes: as for B1
For B10, the “Anti-PSMA Fab signal” value [5] was 0.101 and the “Anti-PSMA Fab (SEQ ID NOs: 19, 20) signal” value [6] was 1.51.

From US20260242478A1 (published 2026)
